Laboratory results reported in IntAct's records for PubMed 20798051.

Target: fgfr4_human FGFR4 (UniProt P22455)
Sequence of UniProt P22455 (P22455 whole entry, looked up): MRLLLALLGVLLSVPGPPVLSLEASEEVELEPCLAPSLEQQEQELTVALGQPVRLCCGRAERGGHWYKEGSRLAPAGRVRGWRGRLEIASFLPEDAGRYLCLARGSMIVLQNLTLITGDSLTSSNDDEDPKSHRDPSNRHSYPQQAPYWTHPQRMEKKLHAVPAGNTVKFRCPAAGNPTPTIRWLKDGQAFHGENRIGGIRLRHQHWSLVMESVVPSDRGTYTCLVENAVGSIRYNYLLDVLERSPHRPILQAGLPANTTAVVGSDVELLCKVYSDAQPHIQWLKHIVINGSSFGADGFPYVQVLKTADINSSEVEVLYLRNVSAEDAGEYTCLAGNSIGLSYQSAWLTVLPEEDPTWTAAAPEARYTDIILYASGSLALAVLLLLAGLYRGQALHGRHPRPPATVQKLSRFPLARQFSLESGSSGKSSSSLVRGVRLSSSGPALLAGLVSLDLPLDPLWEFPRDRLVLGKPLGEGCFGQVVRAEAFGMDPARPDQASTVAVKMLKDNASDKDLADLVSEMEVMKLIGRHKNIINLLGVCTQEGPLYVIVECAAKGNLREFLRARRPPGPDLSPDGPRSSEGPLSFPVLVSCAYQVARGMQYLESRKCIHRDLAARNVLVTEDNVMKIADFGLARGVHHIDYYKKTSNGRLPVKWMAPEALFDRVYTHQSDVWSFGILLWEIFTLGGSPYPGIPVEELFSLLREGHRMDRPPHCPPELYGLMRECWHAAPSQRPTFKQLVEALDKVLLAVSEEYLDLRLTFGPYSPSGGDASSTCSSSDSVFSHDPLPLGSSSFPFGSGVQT

effect of a mutation on the interaction | Substance
decreasing interaction | Matrix metalloproteinase-14 (Homo sapiens) (from UniProt P50281) E240A
decreasing interaction | Matrix metalloproteinase-14 (Homo sapiens) (from UniProt P50281) Y573F
